Laboratory results: patent US20230357348A1 (AstraZeneca / MedImmune, published 2023)
Starred links: 1 amine or outer side, 2 acyl side, 3 side chain; linkers in the order of their positions; H or OH if unused. Non-standard residues stand in square brackets, D forms with d. Groups on a side chain read outwards from the residue. No end group written: not given here. *: point of attachment. C20 diacid = O=C(O)CCCCCCCCCCCCCCCCCCC(=O)*; C18 diacid = O=C(O)CCCCCCCCCCCCCCCCC(=O)*; Dip = N[C@H](C(=O)O)C(c1ccccc1)c1ccccc1; γGlu = O=C(O)[C@H](CCC(=O)[*:2])N[*:1]; Stearoyl = CCCCCCCCCCCCCCCCCC(=O)*; αMeF = C[C@](N)(Cc1ccccc1)C(=O)O; (PEG)2 = polyethylene glycol 2; PEG4 = NCCOCCOCCOCCOCCC(=O)O; AEEA = NCCOCCOCC(=O)O; Aib = CC(C)(N)C(=O)O

B1: Peptide 55 (peptide)
peptide: HSQGS[αMeF]TSDVSK[Dip]LDSK([(PEG)2-(PEG)2-γGlu-γGlu-Stearoyl])AAQD[αMeF]VQ[Dip]LEA-NH2
B2: Peptide 6 (peptide)
peptide: H[Aib]HGS[αMeF]TSDVSK[αMeF]LDSK([AEEA-AEEA-γGlu-C18 diacid])AAQD[αMeF]VEWIAN-NH2
modifications: N-terminus assumed
SMILES: CC[C@H](C)[C@H](NC(=O)[C@H](Cc1c[nH]c2ccccc12)NC(=O)[C@H](CCC(=O)O)NC(=O)[C@@H](NC(=O)[C@](C)(Cc1ccccc1)NC(=O)[C@H](CC(=O)O)NC(=O)[C@H](CCC(N)=O)NC(=O)[C@H](C)NC(=O)[C@H](C)NC(=O)[C@H](CCCCNC(=O)COCCOCCNC(=O)COCCOCCNC(=O)CC[C@H](NC(=O)CCCCCCCCCCCCCCCCC(=O)O)C(=O)O)NC(=O)[C@H](CO)NC(=O)[C@H](CC(=O)O)NC(=O)[C@H](CC(C)C)NC(=O)[C@](C)(Cc1ccccc1)NC(=O)[C@H](CCCCN)NC(=O)[C@H](CO)NC(=O)[C@@H](NC(=O)[C@H](CC(=O)O)NC(=O)[C@H](CO)NC(=O)[C@@H](NC(=O)[C@](C)(Cc1ccccc1)NC(=O)[C@H](CO)NC(=O)CNC(=O)[C@H](Cc1c[nH]cn1)NC(=O)C(C)(C)NC(=O)[C@@H](N)Cc1c[nH]cn1)[C@@H](C)O)C(C)C)C(C)C)C(=O)N[C@@H](C)C(=O)N[C@@H](CC(N)=O)C(N)=O
B3: Peptide 5 (peptide)
peptide: H[Aib]QGS[αMeF]TSDVSK[αMeF]LDSK([AEEA-AEEA-γGlu-γGlu-C18 diacid])AAQD[αMeF]VQ[Aib]IAN-NH2
modifications: N-terminus assumed
SMILES: CC[C@H](C)[C@H](NC(=O)C(C)(C)NC(=O)[C@H](CCC(N)=O)NC(=O)[C@@H](NC(=O)[C@](C)(Cc1ccccc1)NC(=O)[C@H](CC(=O)O)NC(=O)[C@H](CCC(N)=O)NC(=O)[C@H](C)NC(=O)[C@H](C)NC(=O)[C@H](CCCCNC(=O)COCCOCCNC(=O)COCCOCCNC(=O)CC[C@H](NC(=O)CC[C@H](NC(=O)CCCCCCCCCCCCCCCCC(=O)O)C(=O)O)C(=O)O)NC(=O)[C@H](CO)NC(=O)[C@H](CC(=O)O)NC(=O)[C@H](CC(C)C)NC(=O)[C@](C)(Cc1ccccc1)NC(=O)[C@H](CCCCN)NC(=O)[C@H](CO)NC(=O)[C@@H](NC(=O)[C@H](CC(=O)O)NC(=O)[C@H](CO)NC(=O)[C@@H](NC(=O)[C@](C)(Cc1ccccc1)NC(=O)[C@H](CO)NC(=O)CNC(=O)[C@H](CCC(N)=O)NC(=O)C(C)(C)NC(=O)[C@@H](N)Cc1c[nH]cn1)[C@@H](C)O)C(C)C)C(C)C)C(=O)N[C@@H](C)C(=O)N[C@@H](CC(N)=O)C(N)=O
B4: Peptide 151 (peptide)
peptide: H[Aib]QGTFTSDVSK[αMeF]LDSK([AEEA-AEEA-γGlu-C20 diacid])RAQDFVRWLL[Aib]TE-OH
modifications: N-terminus assumed
SMILES: CC(C)C[C@H](NC(=O)[C@H](Cc1c[nH]c2ccccc12)NC(=O)[C@H](CCCNC(=N)N)NC(=O)[C@@H](NC(=O)[C@H](Cc1ccccc1)NC(=O)[C@H](CC(=O)O)NC(=O)[C@H](CCC(N)=O)NC(=O)[C@H](C)NC(=O)[C@H](CCCNC(=N)N)NC(=O)[C@H](CCCCNC(=O)COCCOCCNC(=O)COCCOCCNC(=O)CC[C@H](NC(=O)CCCCCCCCCCCCCCCCCCC(=O)O)C(=O)O)NC(=O)[C@H](CO)NC(=O)[C@H](CC(=O)O)NC(=O)[C@H](CC(C)C)NC(=O)[C@](C)(Cc1ccccc1)NC(=O)[C@H](CCCCN)NC(=O)[C@H](CO)NC(=O)[C@@H](NC(=O)[C@H](CC(=O)O)NC(=O)[C@H](CO)NC(=O)[C@@H](NC(=O)[C@H](Cc1ccccc1)NC(=O)[C@@H](NC(=O)CNC(=O)[C@H](CCC(N)=O)NC(=O)C(C)(C)NC(=O)[C@@H](N)Cc1c[nH]cn1)[C@@H](C)O)[C@@H](C)O)C(C)C)C(C)C)C(=O)N[C@@H](CC(C)C)C(=O)NC(C)(C)C(=O)N[C@H](C(=O)N[C@@H](CCC(=O)O)C(=O)O)[C@@H](C)O
B5: Peptide 166 (peptide)
peptide: H[Aib]QGTFTSDVSK[αMeF]LDSK([AEEA-AEEA-γGlu-C18 diacid])RARDFVRWLL[Aib]TE-OH
modifications: N-terminus assumed
SMILES: CC(C)C[C@H](NC(=O)[C@H](Cc1c[nH]c2ccccc12)NC(=O)[C@H](CCCNC(=N)N)NC(=O)[C@@H](NC(=O)[C@H](Cc1ccccc1)NC(=O)[C@H](CC(=O)O)NC(=O)[C@H](CCCNC(=N)N)NC(=O)[C@H](C)NC(=O)[C@H](CCCNC(=N)N)NC(=O)[C@H](CCCCNC(=O)COCCOCCNC(=O)COCCOCCNC(=O)CC[C@H](NC(=O)CCCCCCCCCCCCCCCCC(=O)O)C(=O)O)NC(=O)[C@H](CO)NC(=O)[C@H](CC(=O)O)NC(=O)[C@H](CC(C)C)NC(=O)[C@](C)(Cc1ccccc1)NC(=O)[C@H](CCCCN)NC(=O)[C@H](CO)NC(=O)[C@@H](NC(=O)[C@H](CC(=O)O)NC(=O)[C@H](CO)NC(=O)[C@@H](NC(=O)[C@H](Cc1ccccc1)NC(=O)[C@@H](NC(=O)CNC(=O)[C@H](CCC(N)=O)NC(=O)C(C)(C)NC(=O)[C@@H](N)Cc1c[nH]cn1)[C@@H](C)O)[C@@H](C)O)C(C)C)C(C)C)C(=O)N[C@@H](CC(C)C)C(=O)NC(C)(C)C(=O)N[C@H](C(=O)N[C@@H](CCC(=O)O)C(=O)O)[C@@H](C)O
B6: Peptide 152 (peptide)
peptide: H[Aib]QGTFTSDVSK[αMeF]LDSK([AEEA-AEEA-γGlu-C18 diacid])RAQDFVRWLL[Aib]E-OH
modifications: N-terminus assumed
SMILES: CC(C)C[C@H](NC(=O)[C@H](Cc1c[nH]c2ccccc12)NC(=O)[C@H](CCCNC(=N)N)NC(=O)[C@@H](NC(=O)[C@H](Cc1ccccc1)NC(=O)[C@H](CC(=O)O)NC(=O)[C@H](CCC(N)=O)NC(=O)[C@H](C)NC(=O)[C@H](CCCNC(=N)N)NC(=O)[C@H](CCCCNC(=O)COCCOCCNC(=O)COCCOCCNC(=O)CC[C@H](NC(=O)CCCCCCCCCCCCCCCCC(=O)O)C(=O)O)NC(=O)[C@H](CO)NC(=O)[C@H](CC(=O)O)NC(=O)[C@H](CC(C)C)NC(=O)[C@](C)(Cc1ccccc1)NC(=O)[C@H](CCCCN)NC(=O)[C@H](CO)NC(=O)[C@@H](NC(=O)[C@H](CC(=O)O)NC(=O)[C@H](CO)NC(=O)[C@@H](NC(=O)[C@H](Cc1ccccc1)NC(=O)[C@@H](NC(=O)CNC(=O)[C@H](CCC(N)=O)NC(=O)C(C)(C)NC(=O)[C@@H](N)Cc1c[nH]cn1)[C@@H](C)O)[C@@H](C)O)C(C)C)C(C)C)C(=O)N[C@@H](CC(C)C)C(=O)NC(C)(C)C(=O)N[C@@H](CCC(=O)O)C(=O)O
B7: Peptide 153 (peptide)
peptide: H[Aib]QGTFTSDVSK[αMeF]LDSK([AEEA-AEEA-γGlu-C20 diacid])RAQDFVRWLL[Aib]E-OH
modifications: N-terminus assumed
SMILES: CC(C)C[C@H](NC(=O)[C@H](Cc1c[nH]c2ccccc12)NC(=O)[C@H](CCCNC(=N)N)NC(=O)[C@@H](NC(=O)[C@H](Cc1ccccc1)NC(=O)[C@H](CC(=O)O)NC(=O)[C@H](CCC(N)=O)NC(=O)[C@H](C)NC(=O)[C@H](CCCNC(=N)N)NC(=O)[C@H](CCCCNC(=O)COCCOCCNC(=O)COCCOCCNC(=O)CC[C@H](NC(=O)CCCCCCCCCCCCCCCCCCC(=O)O)C(=O)O)NC(=O)[C@H](CO)NC(=O)[C@H](CC(=O)O)NC(=O)[C@H](CC(C)C)NC(=O)[C@](C)(Cc1ccccc1)NC(=O)[C@H](CCCCN)NC(=O)[C@H](CO)NC(=O)[C@@H](NC(=O)[C@H](CC(=O)O)NC(=O)[C@H](CO)NC(=O)[C@@H](NC(=O)[C@H](Cc1ccccc1)NC(=O)[C@@H](NC(=O)CNC(=O)[C@H](CCC(N)=O)NC(=O)C(C)(C)NC(=O)[C@@H](N)Cc1c[nH]cn1)[C@@H](C)O)[C@@H](C)O)C(C)C)C(C)C)C(=O)N[C@@H](CC(C)C)C(=O)NC(C)(C)C(=O)N[C@@H](CCC(=O)O)C(=O)O
B8: Peptide 56 (peptide)
peptide: HSQGS[αMeF]TSDVSK[Dip]LDSK([PEG4-γGlu-γGlu-Stearoyl])AAQD[αMeF]VE[Aib]IINT-NH2
modifications: N-terminus assumed
SMILES: CCCCCCCCCCCCCCCCCC(=O)N[C@@H](CCC(=O)N[C@@H](CCC(=O)NCCOCCOCCOCCOCCC(=O)NCCCC[C@H](NC(=O)[C@H](CO)NC(=O)[C@H](CC(=O)O)NC(=O)[C@H](CC(C)C)NC(=O)[C@@H](NC(=O)[C@H](CCCCN)NC(=O)[C@H](CO)NC(=O)[C@@H](NC(=O)[C@H](CC(=O)O)NC(=O)[C@H](CO)NC(=O)[C@@H](NC(=O)[C@](C)(Cc1ccccc1)NC(=O)[C@H](CO)NC(=O)CNC(=O)[C@H](CCC(N)=O)NC(=O)[C@H](CO)NC(=O)[C@@H](N)Cc1c[nH]cn1)[C@@H](C)O)C(C)C)C(c1ccccc1)c1ccccc1)C(=O)N[C@@H](C)C(=O)N[C@@H](C)C(=O)N[C@@H](CCC(N)=O)C(=O)N[C@@H](CC(=O)O)C(=O)N[C@@](C)(Cc1ccccc1)C(=O)N[C@H](C(=O)N[C@@H](CCC(=O)O)C(=O)NC(C)(C)C(=O)N[C@H](C(=O)N[C@H](C(=O)N[C@@H](CC(N)=O)C(=O)N[C@H](C(N)=O)[C@@H](C)O)[C@@H](C)CC)[C@@H](C)CC)C(C)C)C(=O)O)C(=O)O

Assays:
[1] = target: human GLP-1 receptor (hGLP-1R) (human, UniProt P43220 24-463); assay: cell-based or functional assay
[2] = target: human glucagon receptor (hGCGR) (human, UniProt P47871 26-477); assay: cell-based or functional assay
Chain of human glucagon receptor (hGCGR) (P47871 26-477): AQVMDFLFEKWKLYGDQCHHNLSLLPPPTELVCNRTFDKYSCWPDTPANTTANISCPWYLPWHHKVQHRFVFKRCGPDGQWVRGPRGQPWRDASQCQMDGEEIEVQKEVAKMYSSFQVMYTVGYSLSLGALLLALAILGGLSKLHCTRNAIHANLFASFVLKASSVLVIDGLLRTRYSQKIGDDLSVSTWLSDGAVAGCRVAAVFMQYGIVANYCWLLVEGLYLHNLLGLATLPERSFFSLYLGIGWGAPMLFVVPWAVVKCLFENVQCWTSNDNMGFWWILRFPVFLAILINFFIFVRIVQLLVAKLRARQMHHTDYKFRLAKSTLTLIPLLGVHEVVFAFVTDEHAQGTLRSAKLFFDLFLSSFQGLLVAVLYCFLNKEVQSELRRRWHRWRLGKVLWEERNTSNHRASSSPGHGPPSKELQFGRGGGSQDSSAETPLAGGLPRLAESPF

| Binder | hGLP-1R EC50 (pM) [1] | hGluc-R EC50 (pM) [2] |
| --- | --- | --- |
| B1 | 18.8 pM | 19.1 pM |
| B2 | 568 pM | 516 pM |
| B3 | 283 pM | 7140 pM |
| B4 | 111 pM | 178 pM |
| B5 | 48 pM | 270 pM |
| B6 | 11.9 pM | 20.4 pM |
| B7 | 41.2 pM | 99 pM |
| B8 | 4.86 pM | 10.9 pM |
